In article PMC9352680, “A comprehensive thermodynamic model for RNA binding by the Saccharomyces cerevisiae Pumilio protein PUF4” one finds Kd data, which are given here for 44 molecules.

The chains are these.
T1: PUF4 RNA-binding domain (Saccharomyces cerevisiae, UniProt P25339 537-888)
T1 sequence: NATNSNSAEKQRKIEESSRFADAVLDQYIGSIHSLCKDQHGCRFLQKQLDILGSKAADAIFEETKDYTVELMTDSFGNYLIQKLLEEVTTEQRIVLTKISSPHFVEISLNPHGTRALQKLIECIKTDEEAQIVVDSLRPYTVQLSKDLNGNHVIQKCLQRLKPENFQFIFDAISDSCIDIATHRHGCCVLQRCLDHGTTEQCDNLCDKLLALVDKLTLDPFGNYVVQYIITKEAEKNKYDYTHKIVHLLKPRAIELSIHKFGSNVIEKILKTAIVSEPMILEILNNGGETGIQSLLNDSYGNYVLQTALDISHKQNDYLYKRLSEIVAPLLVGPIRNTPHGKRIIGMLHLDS

This data set has as its target T1, PUF4 RNA-binding domain. The data set can be described thus: Mg; RNA-MaP; 20 mM Na-HEPES pH 7.4, 30 mM KOAc, 0.75 mM MgCl2, 0.1% Tween-20, 5% glycerol, 0.1 mg/mL BSA, 2 mM DTT; 25 C; 0.0125-409.6 nM protein. The settings on record: tags: N-His6-TEV cleaved; C-SNAP kept, Cy3B-labelled; label: tethered on chip by stalled RNA polymerase.
On to UCUCUUCGUAUAUUAUUAUCUCUCUU (ssRNA) [Id_ii_S1_P5E.3_K5.2_C5.2_[T-1G]_H5.2_A5.1_F5.1_T5.2_[A12C]], for which the dissociation constant Kd (in general, the concentration at which binding is half-saturated) worked out at 18.4 nM.
The result for UCUCUUCGUAUAUUAUUAAUUCUCUU (ssRNA) [Id_ii_S1_P5E.3_K5.2_C5.2_[T-1G]_H5.2_A5.1_F5.1_T5.2_[T11A]_[A12T]] reads 26.5 nM; that for UCUCUUCAUAUAUUAUUACCUCUCUU (ssRNA) [Id_ii_S1_P5E.3_K5.2_C5.2_[T-1A]_H5.2_A5.1_F5.1_T5.2_[T11C]_[A12C]], 278 nM; that for UCUCUUUGUAUUAUAUCUCUU (ssRNA) [Ib_S1_P4E.1_K4.1_C4.1_H4.1_A4.1_[A6T]_[T7A]_F4.1_T4.1], 2.13 nM.
UCUCUUAUUAUAUUAUUACCUCUCUU (ssRNA) [Id_ii_S1_P5E.3_K5.2_C5.2_[C-2A]_H5.2_A5.1_F5.1_T5.2_[T11C]_[A12C]] gave a Kd of 203 nM.
The same measure for UCUCUUCGUAUAUUAUUAUUUCUCUU (ssRNA) [Id_ii_S1_P5E.3_K5.2_C5.2_[T-1G]_H5.2_A5.1_F5.1_T5.2_[A12T]]: 26.6 nM; for UCUCUUCAUAUAUUAUUAGGUCUCUU (ssRNA) [Id_ii_S1_P5E.3_K5.2_C5.2_[T-1A]_H5.2_A5.1_F5.1_T5.2_[T11G]_[A12G]]: 488 nM.
The same measure for UCUCUUCAUAUAUUAUUAACUCUCUU (ssRNA) [Id_ii_S1_P5E.3_K5.2_C5.2_[T-1A]_H5.2_A5.1_F5.1_T5.2_[T11A]_[A12C]]: 218 nM; for UCUCUUCCUAUAUUAUUACUUCUCUU (ssRNA) [Id_ii_S1_P5E.3_K5.2_C5.2_[T-1C]_H5.2_A5.1_F5.1_T5.2_[T11C]_[A12T]]: 456 nM; for UCUCUUAUUAUAUUAUUAUCUCUCUU (ssRNA) [Id_ii_S1_P5E.3_K5.2_C5.2_[C-2A]_H5.2_A5.1_F5.1_T5.2_[A12C]]: 63.5 nM.
The result for UCUCUUCGUAUAUUAUUAGCUCUCUU (ssRNA) [Id_ii_S1_P5E.3_K5.2_C5.2_[T-1G]_H5.2_A5.1_F5.1_T5.2_[T11G]_[A12C]] reads 25.6 nM.
As to UCUCUUUGUAUUAGUCUCUCUU (ssRNA) [Ib_S1_P5E.1_K5.1_C5.1_H5.1_A5.1_F5.1_[T8G]_[A10C]_T5.1], the dissociation constant (Kd) came out at 518 nM.
The result for UCUCUUCGUAUAUUAUUAAAUCUCUU (ssRNA) [Id_ii_S1_P5E.3_K5.2_C5.2_[T-1G]_H5.2_A5.1_F5.1_T5.2_[T11A]] reads 38.8 nM; that for UCUCUUCCUAUAUUAUUAUUUCUCUU (ssRNA) [Id_ii_S1_P5E.3_K5.2_C5.2_[T-1C]_H5.2_A5.1_F5.1_T5.2_[A12T]], 517 nM; that for UCUCUUCCUAUAUUAUUAAAUCUCUU (ssRNA) [Id_ii_S1_P5E.3_K5.2_C5.2_[T-1C]_H5.2_A5.1_F5.1_T5.2_[T11A]], 683 nM.
UCUCUUCCUAUAUUAUUAACUCUCUU (ssRNA) [Id_ii_S1_P5E.3_K5.2_C5.2_[T-1C]_H5.2_A5.1_F5.1_T5.2_[T11A]_[A12C]] showed a dissociation constant Kd of 620 nM.
The result for UCUCUUACUAUAUUAUUAUCUCUCUU (ssRNA) [Id_ii_S1_P5E.3_K5.2_C5.2_[C-2A]_[T-1C]_H5.2_A5.1_F5.1_T5.2_[A12C]] reads 536 nM; that for UCUCUUCAUAUAUUAUUAGCUCUCUU (ssRNA) [Id_ii_S1_P5E.3_K5.2_C5.2_[T-1A]_H5.2_A5.1_F5.1_T5.2_[T11G]_[A12C]], 157 nM; that for UCUCUUUGUAUUAGUGUCUCUU (ssRNA) [Ib_S1_P5E.1_K5.1_C5.1_H5.1_A5.1_F5.1_[T8G]_[A10G]_T5.1], 386 nM.
UCUCUUCCUAUAUUAUUAAGUCUCUU (ssRNA) [Id_ii_S1_P5E.3_K5.2_C5.2_[T-1C]_H5.2_A5.1_F5.1_T5.2_[T11A]_[A12G]] displayed a dissociation constant (Kd) of 971 nM.
The result for UCUCUUCAUAUAUUAUUAAUUCUCUU (ssRNA) [Id_ii_S1_P5E.3_K5.2_C5.2_[T-1A]_H5.2_A5.1_F5.1_T5.2_[T11A]_[A12T]] reads 424 nM.
The same measure for UCUCUUAUUAUAUUAUUAUUUCUCUU (ssRNA) [Id_ii_S1_P5E.3_K5.2_C5.2_[C-2A]_H5.2_A5.1_F5.1_T5.2_[A12T]]: 160 nM; for UCUCUUCCUAUAUUAUUACAUCUCUU (ssRNA) [Id_ii_S1_P5E.3_K5.2_C5.2_[T-1C]_H5.2_A5.1_F5.1_T5.2_[T11C]]: 592 nM; for UCUCUUCGUAUAUUAUUAACUCUCUU (ssRNA) [Id_ii_S1_P5E.3_K5.2_C5.2_[T-1G]_H5.2_A5.1_F5.1_T5.2_[T11A]_[A12C]]: 27.7 nM.
The result for UCUCUUUGUAUUACCAUCUCUU (ssRNA) [Ib_S1_P5E.1_K5.1_C5.1_H5.1_A5.1_F5.1_[T8C]_[T9C]_T5.1] reads 287 nM; that for UCUCUUCUUAUAUUAUUAGUUCUCUU (ssRNA) [Id_ii_S1_P5E.3_K5.2_C5.2_H5.2_A5.1_F5.1_T5.2_[T11G]_[A12T]], 82.2 nM; that for UCUCUUCCUAUAUUAUUACGUCUCUU (ssRNA) [Id_ii_S1_P5E.3_K5.2_C5.2_[T-1C]_H5.2_A5.1_F5.1_T5.2_[T11C]_[A12G]], 746 nM.
In the case of UCUCUUAUUAUAUUAUUAGCUCUCUU (ssRNA) [Id_ii_S1_P5E.3_K5.2_C5.2_[C-2A]_H5.2_A5.1_F5.1_T5.2_[T11G]_[A12C]], the Kd is 208 nM.
The result for UCUCUUCAUAUAUUAUUACUUCUCUU (ssRNA) [Id_ii_S1_P5E.3_K5.2_C5.2_[T-1A]_H5.2_A5.1_F5.1_T5.2_[T11C]_[A12T]] reads 321 nM; that for UCUCUUCAUAUAUUAUUACGUCUCUU (ssRNA) [Id_ii_S1_P5E.3_K5.2_C5.2_[T-1A]_H5.2_A5.1_F5.1_T5.2_[T11C]_[A12G]], 440 nM; that for UCUCUUAUUAUAUUAUUACAUCUCUU (ssRNA) [Id_ii_S1_P5E.3_K5.2_C5.2_[C-2A]_H5.2_A5.1_F5.1_T5.2_[T11C]], 128 nM.
The same measure for UCUCUUCGUAUAUUAUUAGUUCUCUU (ssRNA) [Id_ii_S1_P5E.3_K5.2_C5.2_[T-1G]_H5.2_A5.1_F5.1_T5.2_[T11G]_[A12T]]: 25.4 nM.
In the case of UCUCUUCUUAUAUUAUUAGCUCUCUU (ssRNA) [Id_ii_S1_P5E.3_K5.2_C5.2_H5.2_A5.1_F5.1_T5.2_[T11G]_[A12C]], the affinity, expressed as Kd, was 122 nM.
Regarding UCUCUUAAUAUAUUAUUACAUCUCUU (ssRNA) [Id_ii_S1_P5E.3_K5.2_C5.2_[C-2A]_[T-1A]_H5.2_A5.1_F5.1_T5.2_[T11C]], binding was characterised by a dissociation constant (Kd) of 601 nM.
The same measure for UCUCUUCCUAUAUUAUUAUCUCUCUU (ssRNA) [Id_ii_S1_P5E.3_K5.2_C5.2_[T-1C]_H5.2_A5.1_F5.1_T5.2_[A12C]]: 532 nM.
With UCUCUUAUUAUAUUAUUACUUCUCUU (ssRNA) [Id_ii_S1_P5E.3_K5.2_C5.2_[C-2A]_H5.2_A5.1_F5.1_T5.2_[T11C]_[A12T]], the dissociation constant (Kd) was found to be 175 nM.
The same measure for UCUCUUAAUAUAUUAUUACUUCUCUU (ssRNA) [Id_ii_S1_P5E.3_K5.2_C5.2_[C-2A]_[T-1A]_H5.2_A5.1_F5.1_T5.2_[T11C]_[A12T]]: 552 nM; for UCUCUUAAUAUAUUAUUACCUCUCUU (ssRNA) [Id_ii_S1_P5E.3_K5.2_C5.2_[C-2A]_[T-1A]_H5.2_A5.1_F5.1_T5.2_[T11C]_[A12C]]: 668 nM.
The result for UCUCUUAUUAUAUUAUUACGUCUCUU (ssRNA) [Id_ii_S1_P5E.3_K5.2_C5.2_[C-2A]_H5.2_A5.1_F5.1_T5.2_[T11C]_[A12G]] reads 126 nM.
The result for UCUCUUAUUAUAUUAUUAACUCUCUU (ssRNA) [Id_ii_S1_P5E.3_K5.2_C5.2_[C-2A]_H5.2_A5.1_F5.1_T5.2_[T11A]_[A12C]] reads 159 nM; that for UCUCUUCAUAUAUUAUUAUUUCUCUU (ssRNA) [Id_ii_S1_P5E.3_K5.2_C5.2_[T-1A]_H5.2_A5.1_F5.1_T5.2_[A12T]], 395 nM; that for UCUCUUCCUAUAUUAUUAAUUCUCUU (ssRNA) [Id_ii_S1_P5E.3_K5.2_C5.2_[T-1C]_H5.2_A5.1_F5.1_T5.2_[T11A]_[A12T]], 779 nM.
In the case of UCUCUUCAUAUAUUAUUAGUUCUCUU (ssRNA) [Id_ii_S1_P5E.3_K5.2_C5.2_[T-1A]_H5.2_A5.1_F5.1_T5.2_[T11G]_[A12T]], the affinity, expressed as Kd, was 141 nM.
The result for UCUCUUCAUAUAUUAUUAUCUCUCUU (ssRNA) [Id_ii_S1_P5E.3_K5.2_C5.2_[T-1A]_H5.2_A5.1_F5.1_T5.2_[A12C]] reads 180 nM.
